Tests used:
[1] = target: GltPh, fully functional seven-histidine mutant, referred to as wildtype (WT) (UniProt O59010); experiment: cryo-EM structure
[2] = target: GltPh K55C/C321A/A364C mutant, cross-linked with HgCl2 (GltPh^IFS) (UniProt O59010); experiment: cryo-EM structure

| Substance | stoichiometry N [1] | stoichiometry N [2] |
| --- | --- | --- |
| GltPh, fully functional seven-histidine mutant, referred to as wildtype (WT) (from UniProt O59010 1-417) (natural protein) | 3 | – |
| GltPh K55C/C321A/A364C mutant, cross-linked with HgCl2 (GltPh^IFS) (from UniProt O59010 1-425) (natural protein) | – | 3 |
